Measured values published in PMC5805711.
Read-outs that look alike come from different tables or passages of the source.

Key:
His68 [1] = molecular target: T1, His68 (UniProt position 68, KESTLHLVLRL); experiment: NMR; settings: 23 °C; Not stated explicitly for Ub^WT; described as 'a similar pH titration' to that of pUb in citric acid-phosphate buffer; Free wild-type ubiquitin, folded
His68 [2] = molecular target: T1, His68; settings: Ubiquitin; form not further specified (literature value); cited from earlier work

## Ubiquitin (Ub^WT) (Homo sapiens (inferred; the article does not state the species of the ubiquitin))
His68 [1]
  pKa: 5.7
His68 [2]
  pKa: 5.5
